Publication PMC2169462 (The Journal of Cell Biology, 2001)

Molecular target: His6-tagged human RanGTP Q69L (human, UniProt P62826 1-216, Q69L)
Assay: pull-down

B1: recombinant Kap95p (natural protein)
chain: MSTAEFAQLLENSILSPDQNIRLTSETQLKKLSNDNFLQFAGLSSQVLIDENTKLEGRILAALTLKNELVSKDSVKTQQFAQRWITQVSPEAKNQIKTNALTALVSIEPRIANAAAQLIAAIADIELPHGAWPELMKIMVDNTGAEQPENVKRASLLALGYMCESADPQSQALVSSSNNILIAIVQGAQSTETSKAVRLAALNALADSLIFIKNNMEREGERNYLMQVVCEATQAEDIEVQAAAFGCLCKIMSLYYTFMKPYMEQALYALTIATMKSPNDKVASMTVEFWSTICEEEIDIAYELAQFPQSPLQSYNFALSSIKDVVPNLLNLLTRQNEDPEDDDWNVSMSAGACLQLFAQNCGNHILEPVLEFVEQNITADNWRNREAAVMAFGSIMDGPDKVQRTYYVHQALPSILNLMNDQSLQVKETTAWCIGRIADSVAESIDPQQHLPGVVQACLIGLQDHPKVATNCSWTIINLVEQLAEATPSPIYNFYPALVDGLIGAANRIDNEFNARASAFSALTTMVEYATDTVAETSASISTFVMDKLGQTMSVDENQLTLEDAQSLQELQSNILTVLAAVIRKSPSSVEPVADMLMGLFFRLLEKKDSAFIEDDVFYAISALAASLGKGFEKYLETFSPYLLKALNQVDSPVSITAVGFIADISNSLEEDFRRYSDAMMNVLAQMISNPNARRELKPAVLSVFGDIASNIGADFIPYLNDIMALCVAAQNTKPENGTLEALDYQIKVLEAVLDAYVGIVAGLHDKPEALFPYVGTIFQFIAQVAEDPQLYSEDATSRAAVGLIGDIAAMFPDGSIKQFYGQDWVIDYIKRTRSGQLFSQATKDTARWAREQQKRQLSL
binding result: binds

B2: recombinant Kap121p (natural protein)
chain: MSALPEEVNRTLLQIVQAFASPDNQIRSVAEKALSEEWITENNIEYLLTFLAEQAAFSQDTTVAALSAVLFRKLALKAPPSSKLMIMSKNITHIRKEVLAQIRSSLLKGFLSERADSIRHKLSDAIAECVQDDLPAWPELLQALIESLKSGNPNFRESSFRILTTVPYLITAVDINSILPIFQSGFTDASDNVKIAAVTAFVGYFKQLPKSEWSKLGILLPSLLNSLPRFLDDGKDDALASVFESLIELVELAPKLFKDMFDQIIQFTDMVIKNKDLEPPARTTALELLTVFSENAPQMCKSNQNYGQTLVMVTLIMMTEVSIDDDDAAEWIESDDTDDEEEVTYDHARQALDRVALKLGGEYLAAPLFQYLQQMITSTEWRERFAAMMALSSAAEGCADVLIGEIPKILDMVIPLINDPHPRVQYGCCNVLGQISTDFSPFIQRTAHDRILPALISKLTSECTSRVQTHAAAALVNFSEFASKDILEPYLDSLLTNLLVLLQSNKLYVQEQALTTIAFIAEAAKNKFIKYYDTLMPLLLNVLKVNNKDNSVLKGKCMECATLIGFAVGKEKFHEHSQELISILVALQNSDIDEDDALRSYLEQSWSRICRILGDDFVPLLPIVIPPLLITAKATQDVGLIEEEEAANFQQYPDWDVVQVQGKHIAIHTSVLDDKVSAMELLQSYATLLRGQFAVYVKEVMEEIALPSLDFYLHDGVRAAGATLIPILLSCLLAATGTQNEELVLLWHKASSKLIGGLMSEPMPEITQVYHNSLVNGIKVMGDNCLSEDQLAAFTKGVSANLTDTYERMQDRHGDGDEYNENIDEEEDFTDEDLLDEINKSIAAVLKTTNGHYLKNLENIWPMINTFLLDNEPILVIFALVVIGDLIQYGGEQTASMKNAFIPKVTECLISPDARIRQAASYIIGVCAQYAPSTYADVCIPTLDTLVQIVDFPGSKLEENRSSTENASAAIAKILYAYNSNIPNVDTYTANWFKTLPTITDKEAASFNYQFLSQLIENNSPIVCAQSNISAVVDSVIQALNERSLTEREGQTVISSVKKLLGFLPSSDAMAIFNRYPADIMEKVHKWFA
binding result: binds
